# B1: MnC2t2p1_C11 (antibody, V domains shown)
# VH: QVQLVQSGAEVKKPGSSVKVSCKASGGTFSRYTIIWVRQAPGQGLEWMGRIIPILDIANYAQKFQGRVTITADKSTSTAYMELSSLRSEDTAVYYCAREGGLDYFGSRNSGWTYTWFDPWGQGTLVTVSS
# VL: DIQMTQSPSSLSASVGDRVTITCRASQNISSYLNWYQQKPGKAPNLLIYAASSLQSGVPPRFSGSGSGTDFTLTISSLQPEDFATYYCQQSYSTLYSFGQGTKLEIK
# B2: MnC4t2p2_A4 (antibody, V domains shown)
# VH: QVQLVQSGSELKKPGASVKISCKASGYIFINYAMNWVRQAPGQGLEWMGWINTNTGNPTYAQDFTGRFVFSLDTSLSTAYLQISSLEAEDTAVYYCAKIGSRNSLGVWGQGTLVTVSA
# VL: EIVLTQSPGTLSLSPGERATLSCRASHSVDRSYLAWYQQKPGLAPRLLIYGASSRATGIPDRFSGSGSGTDFTLTISRLEPEDFALYYCQHFGTSSVTFGRGTRLEIK
# B3: MnC4t2p1_B3 (antibody, V domains shown)
# VH: EVQLVESGGHLVQPGRSLRLSCAASGFTFDDYAMHWVRQVPGKGLEWVSGISWNGGILDYADSVKGRFTISRDNAKNSLYLHMRSLRTDDTALYYCAKDLRRQDYYADWYFDLWGRGTLVTVSS
# VL: DIQMIQSPSSVSASVGDRVTITCRASQGISSWLAWYQQKPGKAPKLLIYAASTLLSAVPSRFSGSGSGTDFTLTISSLQPEDFATYYCQQGNSFPFTFGPGTIVDV
# B4: MnC2t1p1_A3 (antibody, V domains shown)
# VH: EVQLVESGGGLVQPGGSLRLSCAASGFTVSSNYMSWVRQAPGRGLEWVSVIYSGGSTFYADSVKGRFTISRDNSKNTLYLQMNSLRPEDTAVYYCATGARFGESPFDYWGQGTLVTVSS
# VL: DIQMTQSPSSVSASVGDRVTITCRASQGISSWLAWYQQKPGKAPKLLIYAASSLQSGVPSRFSGSGSGTDFTLTISSLQPEDFATYYCQQANSFPGTFGQGTKVEIK
# B5: FnC1t2p1_D4 (antibody, V domains shown)
# VH: QVQLVQSGSELKKPGASVKVSCKASGYTFLRFAMNWLRQAPGQGLEWMGWIDTNTGTPTYAQGFTGRFVFSLDTSVSTAYLQISSLKAEDTAVYYCARSLRGANLVPWGQGTLVTVSS
# VL: DIQMTQSPSSLSASVGDRVTITCQASQDVSNYLNWYQQQPGKAPKLLIYDAFNLETGVPSRFSGSGSGTDFTFTISSLQPEDIATYYCQQYDNLPLTFGGGTKVEIK
# B6: FnC1t2p1_G5 (antibody, V domains shown)
# VH: B5 VH
# VL: B5 VL
# Biological target: SARS-CoV-2的刺突(S)蛋白的受体结合结构域(RBD) (SARS-CoV-2, UniProt P0DTC2 319-541)
row,Binder,Kd [nM]
1,B1,0.02
2,B2,14
3,B3,0.09
4,B4,0.7
5,B5,0.2
6,B6,0.1
